Measured values published in PMC9045774, “The prominent role of a CDR1 somatic hypermutation for convergent IGHV3-53/3-66 antibodies in binding to SARS-CoV-2” (Emerging Microbes & Infections, 2022).

Biological target: T1, SARS-CoV-2 receptor-binding domain (RBD) (SARS-CoV-2, ancestral (Wuhan-Hu-1) …, UniProt P0DTC2)
T1 construct: also called SARS-CoV-2 RBD
Test: not stated; binding affinities of the residue-27 germline revertants of BD-236, COVOX-222 and CV30 (supplementary Fig. S5); method not named in the sentence (BLI in the experiments around it)

| Binder | fold decrease of affinity against BD-236 | fold decrease of affinity against COVOX-222 |
| --- | --- | --- |
| BD-236, germline format at residue 27 (reverse mutation) (antibody, V domains shown, as the heavy chain of m10 (PDB 7CHB) with residue 27 reverted to the germline F; as the light chain of m10) VH: EVQLVESGGGLIQPGGSLRLSCAASGFTVSSNYMSWVRQAPGKGLEWVSVIYSGGSTDYADSVKGRFTISRDKSKNTLYLQMNSLRAEDTAVYYCARDLGEAGGMDVWGQGTTVTVSS VL: AIQLTQSPSSLSASVGDRVTITCRASQGISSYLAWYQQKPGKAPKLLIYAASTLQSGVPSRFSGSGSGTDFTLTISSLQPEDFATYYCQQLNSYPPAFGGGTKVEIK | 1.37 fold | – |
| COVOX-222, germline format at residue 27 (reverse mutation) (antibody, V domains shown, as the heavy chain of m12 (PDB 7NX6) with residue 27 reverted to the germline F; as the light chain of m12; also called germline format of COVOX-222) VH: EVQLVESGGGLIQPGGSLRLSCAASGFTVSSNYMSWVRQAPGKGLEWVSVIYSGGSTFYADSVKGRFTISRDNSKNTLYLQMNSLGAEDTAVYYCARGEGSPGNWFDPWGQGTLVTVSS VL: DVVMTQSPGTLSLSPGERATLSCRASQSVPSSYLAWYQQKPGQAPRLLIYGASTRATGIPDRFSGSGSGTDFTLTISRLEPEDFAVYYCQHYDTSPRFGGGTKVDIK | – | 2.02 fold |
